Experimental data as given in patent publication US7138236B1, “Interactions of ATM, ATR or DAN-PK with p53” (Kudos Pharmaceuticals Limited, priority 1997, dated 2006).
Square brackets hold non-standard residues; d marks the D form. pT = C[C@@H](OP(=O)(O)O)[C@H](N)C(=O)O

Biological target: Mdm-2 (Homo sapiens, UniProt Q00987)
Test: Mdm-2 binding of p53-derived peptides by ELISA analysis
Details: peptides containing p53 residues 11 to 25, unphosphorylated or phosphorylated on Ser15 and/or Thr18
Procedure: To test whether phosphorylation on Ser15 or Thr18 of p53 affects its interaction with Mdm-2, phosphorylated and unphosphorylated p53-derived peptides were generated and were assessed for Mdm-2 binding by ELISA analysis. The four peptides used contained p53 residues 11 to 25 (in the sequence (SEQ ID NO:11) NH2-SGSGEPPLSOETFSDLWKL-COOH; where the underlined sequence is that derived from p53) that were unphosphorylated (1); phosphorylated on residue equivalent to p53 residue Ser15(2); phosphorylated on residue equivalent to p53 residue Thr18(3); or phosphorylated on two residues, equivalent to p53 residue Ser15 and Thr18(4). […] We therefore conclude that phosphorylation on Thr18 of p53 has a dramatic effect on its interaction with […] and that phosphorylation of this site is likely to play a key role in regulating p53 responses in vivo.

Sequence of Mdm-2 (Q00987 whole entry, species assumed): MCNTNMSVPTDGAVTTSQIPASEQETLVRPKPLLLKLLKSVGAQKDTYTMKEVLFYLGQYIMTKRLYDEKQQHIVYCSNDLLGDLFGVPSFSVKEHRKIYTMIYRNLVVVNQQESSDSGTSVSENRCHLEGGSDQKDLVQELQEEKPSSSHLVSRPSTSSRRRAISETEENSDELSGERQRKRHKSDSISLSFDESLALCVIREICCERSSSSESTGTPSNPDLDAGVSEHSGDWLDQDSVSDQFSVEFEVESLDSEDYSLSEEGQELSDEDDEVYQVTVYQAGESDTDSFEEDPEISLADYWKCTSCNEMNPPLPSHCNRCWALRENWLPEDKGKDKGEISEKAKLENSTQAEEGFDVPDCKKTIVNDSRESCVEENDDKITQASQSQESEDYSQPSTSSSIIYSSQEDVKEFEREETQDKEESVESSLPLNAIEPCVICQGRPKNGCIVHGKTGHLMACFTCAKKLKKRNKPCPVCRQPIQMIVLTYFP

| Substance | Mdm-2 binding of p53-derived peptides |
| --- | --- |
| NH2-SGSGEPPLSOETFSDLWKL-COOH [peptide 2] (EPPLSQETFSDLWKL; phospho-Ser15; N-terminal SGSG linker; UniProt P04637 11-25, looked up, fragment) [peptide containing p53 residues 11 to 25, phosphorylated on residue equivalent to Ser15] | only impaired slightly |
| NH2-SGSGEPPLSOETFSDLWKL-COOH [3] (H-SGSGEPPLSQE[pT]FSDLWKL-OH; SMILES CC(C)C[C@H](NC(=O)[C@H](CCCCN)NC(=O)[C@H](Cc1c[nH]c2ccccc12)NC(=O)[C@H](CC(C)C)NC(=O)[C@H](CC(=O)O)NC(=O)[C@H](CO)NC(=O)[C@H](Cc1ccccc1)NC(=O)[C@@H](NC(=O)[C@H](CCC(=O)O)NC(=O)[C@H](CCC(N)=O)NC(=O)[C@H](CO)NC(=O)[C@H](CC(C)C)NC(=O)[C@@H]1CCCN1C(=O)[C@@H]1CCCN1C(=O)[C@H](CCC(=O)O)NC(=O)CNC(=O)[C@H](CO)NC(=O)CNC(=O)[C@@H](N)CO)[C@@H](C)OP(=O)(O)O)C(=O)O; UniProt P04637 11-25, looked up, fragment) [compound 3, peptide containing p53 residues 11 to 25, phosphorylated on residue equivalent to Thr18] | inhibited dramatically |
| NH2-SGSGEPPLSOETFSDLWKL-COOH [peptide 1] (H-SGSGEPPLSQETFSDLWKL-OH; UniProt P04637 11-25, looked up, fragment) [peptide containing p53 residues 11 to 25, unphosphorylated] | occurred effectively |
| NH2-SGSGEPPLSOETFSDLWKL-COOH [compound 4] | inhibited dramatically |
